According to patent US8461305B2, “L-fucose α1→6 specific lectin” (J-Oil Mills, Inc., priority 2008, dated 2013):

What was measured:
[1] = target: α-fetoprotein-L3 (prepared from the culture supernatant of human liver cancer cells) (human) (UniProt P02771); experiment: ELISA, α-fetoprotein-L3 coated at 0.01 µg/ml, biotin-labeled lectin
[2] = target: Lens culinaris agglutinin (LCA) of Comparison Example 3 (Lens culinaris) (UniProt P02870); experiment: hemagglutination inhibition; glycoprotein titrated against lectin at titer 4
[3] = target: Aleuria aurantia lectin (AAL) of Comparison Example 1 (Aleuria aurantia) (UniProt P18891); experiment: as above
[4] = target: Aspergillus oryzae lectin (AOL) of Comparison Example 2 (Aspergillus oryzae); experiment: as above
Sequence of Aspergillus oryzae lectin (AOL) of Comparison Example 2 (Aspergillus oryzae) (Q8TGE0 whole entry): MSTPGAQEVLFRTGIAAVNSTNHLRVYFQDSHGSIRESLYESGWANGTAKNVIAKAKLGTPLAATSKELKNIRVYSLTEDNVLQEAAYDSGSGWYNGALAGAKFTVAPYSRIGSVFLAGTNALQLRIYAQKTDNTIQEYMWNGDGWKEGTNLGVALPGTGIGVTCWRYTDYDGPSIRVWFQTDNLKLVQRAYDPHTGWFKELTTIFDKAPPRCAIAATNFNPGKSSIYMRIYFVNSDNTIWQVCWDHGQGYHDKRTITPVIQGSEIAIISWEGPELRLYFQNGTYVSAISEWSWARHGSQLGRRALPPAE

[5] = target: α-fetoprotein (derived from human umbilical cord blood serum, mainly L1-type sugar chain) (human) (UniProt P02771); experiment: ELISA, α-fetoprotein coated at 0.01 µg/ml, biotin-labeled lectin
Sequence of α-fetoprotein (derived from human umbilical cord blood serum, mainly L1-type sugar chain) (human) (P02771 19-609 limits assumed): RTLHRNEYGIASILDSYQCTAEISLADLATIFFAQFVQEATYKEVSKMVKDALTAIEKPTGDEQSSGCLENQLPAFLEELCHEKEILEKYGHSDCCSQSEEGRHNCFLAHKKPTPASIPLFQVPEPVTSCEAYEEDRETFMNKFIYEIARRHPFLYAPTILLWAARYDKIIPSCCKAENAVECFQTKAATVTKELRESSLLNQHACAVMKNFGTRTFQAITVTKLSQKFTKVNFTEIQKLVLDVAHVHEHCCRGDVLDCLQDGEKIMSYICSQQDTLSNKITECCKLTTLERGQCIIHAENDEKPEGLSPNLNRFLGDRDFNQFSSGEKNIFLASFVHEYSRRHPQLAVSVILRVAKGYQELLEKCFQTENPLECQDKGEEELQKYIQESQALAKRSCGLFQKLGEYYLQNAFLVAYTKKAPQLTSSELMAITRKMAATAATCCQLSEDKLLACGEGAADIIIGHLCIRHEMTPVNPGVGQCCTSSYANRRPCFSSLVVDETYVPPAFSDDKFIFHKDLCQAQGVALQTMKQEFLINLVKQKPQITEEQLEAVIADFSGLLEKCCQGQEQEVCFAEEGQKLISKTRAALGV

[6] = target: Pholiota terrestris lectin (PTL) of Example 1 (Pholiota terrestris); experiment: hemagglutination inhibition; glycoprotein titrated against lectin at titer 4
[7] = target: Pisum sativum agglutinin (PSA) of Comparison Example 4 (Pisum sativum) (UniProt P02867); experiment: as above
[8] = target: Stropharia rugosoannulata lectin (SRL) of Example 2 (Stropharia rugosoannulata); experiment: as above
Transferrin (human) = Transferrin (human) (human, UniProt P02787 20-698, N-linked glycans without L-fucose α1→6); experiment: Western blotting, glycoprotein on PVDF stained with biotin-labeled lectin
Sequence of Transferrin (human) (P02787 20-698 limits assumed): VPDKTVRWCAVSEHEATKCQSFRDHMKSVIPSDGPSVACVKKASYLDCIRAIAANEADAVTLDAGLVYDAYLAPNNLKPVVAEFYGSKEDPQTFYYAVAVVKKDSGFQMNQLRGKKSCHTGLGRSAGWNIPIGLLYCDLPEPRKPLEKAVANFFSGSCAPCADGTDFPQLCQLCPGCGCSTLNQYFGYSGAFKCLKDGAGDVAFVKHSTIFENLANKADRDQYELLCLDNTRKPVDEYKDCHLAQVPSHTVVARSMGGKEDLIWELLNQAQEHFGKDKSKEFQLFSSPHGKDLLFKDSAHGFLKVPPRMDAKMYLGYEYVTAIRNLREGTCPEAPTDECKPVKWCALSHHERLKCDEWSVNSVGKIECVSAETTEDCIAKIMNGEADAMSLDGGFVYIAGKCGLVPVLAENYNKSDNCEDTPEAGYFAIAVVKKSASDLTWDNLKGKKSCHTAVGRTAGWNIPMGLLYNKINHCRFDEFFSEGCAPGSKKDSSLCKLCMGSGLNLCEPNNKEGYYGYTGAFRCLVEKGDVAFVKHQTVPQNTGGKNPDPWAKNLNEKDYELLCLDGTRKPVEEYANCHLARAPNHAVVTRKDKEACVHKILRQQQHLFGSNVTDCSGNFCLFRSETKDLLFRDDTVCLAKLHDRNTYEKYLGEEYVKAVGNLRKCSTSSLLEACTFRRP
Description: (§1) The film was immersed in 10 mM Tris buffer solution including 0.8% NaCl added with 1% BSA (pH 7.4, 1% BSA+TBS) and was shaken at a room temperature for one hour. Then, the film was cleaned three times by 10 mM Tris buffer solution (pH 7.4, TBS) including 0.8% NaCl. Then, the film was immersed in biotin-labeled lectin solution (2 µg/ml) and was shaken at a room temperature for one hour. Then, the film was cleaned three times by TBS. Then, the film was immersed in the HRP label streptavidin solution at 1 µg/ml (Vector Laboratories) and was shaken at a room temperature for 30 minutes. After the film was cleaned three times by TBS, a POD immunostain set (Wako Pure Chemical Industries, Ltd.) was used to perform a staining test. The staining test is to detect glycoprotein by the western blotting using biotin-labeled lectin. FIG. 13 to FIG. 17 are photographs showing the following glycoproteins stained by PTL (FIG. 13), SRL (FIG. 14), AAL (FIG. 15), AOL (FIG. 16), or LCA (FIG. 17).

Lactoferrin (bovine) = Lactoferrin (bovine) (bovine, UniProt P24627 20-708, L-fucose α1→6 N-linked glycans); experiment: Western blotting, glycoprotein on PVDF stained with biotin-labeled lectin; ◯ = Detected
Description: as §1

Invertase (yeast) = target: T1, Invertase (yeast) (yeast, UniProt P00724 20-532, high mannose-type sugar chains); experiment: ELISA, glycoprotein coated, biotin-labeled lectin; relative value with thyroglobulin = 100%
T1 sequence (looked up): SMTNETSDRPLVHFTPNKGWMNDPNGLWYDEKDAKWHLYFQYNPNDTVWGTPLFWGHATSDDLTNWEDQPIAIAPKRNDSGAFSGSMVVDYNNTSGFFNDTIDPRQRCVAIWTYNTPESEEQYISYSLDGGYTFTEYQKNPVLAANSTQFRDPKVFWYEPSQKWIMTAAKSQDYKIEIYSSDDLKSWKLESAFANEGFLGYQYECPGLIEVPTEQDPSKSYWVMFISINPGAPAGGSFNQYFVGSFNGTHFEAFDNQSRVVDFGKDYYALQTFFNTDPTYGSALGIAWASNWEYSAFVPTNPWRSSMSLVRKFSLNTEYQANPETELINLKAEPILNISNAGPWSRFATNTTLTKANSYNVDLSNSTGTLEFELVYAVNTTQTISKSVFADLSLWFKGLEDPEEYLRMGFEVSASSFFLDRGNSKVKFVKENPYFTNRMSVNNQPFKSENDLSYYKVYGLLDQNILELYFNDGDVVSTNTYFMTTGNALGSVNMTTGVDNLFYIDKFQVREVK
Description: (§2) The glycoprotein and albumin as protein not including a sugar chain as a control were dissolved in 0.1 M carbonic acid buffer solution (pH 9.5) at 1 mg/ml. Then, the resultant solution was added to a microtiter plate (Nunc 439454) and was incubated at 4 degrees C. overnight. Then, the resultant solution was cleaned by 0.05% Tween/PBS three times. Thereafter, 1% BSA/PBS was added to wells and the solution was incubated at 37 degrees C. for one hour. Then, after the solution was cleaned by 0.05% Tween/PBS three times, biotin labeled-lectin appropriately diluted by 1% BSA/0.05% Tween/PBS was added to the wells and the solution was incubated at 37 degrees C. for one hour. After the solution was cleaned by 0.05% Tween/PBS three times, HRP labeled streptavidin solution diluted by 1% BSA/0.05% Tween/PBS was added to wells and the solution was incubated at 37 degrees C. for 30 minutes. After the solution was cleaned by 0.05% Tween/PBS three times, TMB Peroxidase substrate system (KPL) was added and the resultant solution was incubated at a room temperature for 10 minutes while light was being blocked.
(§3) The reaction was stopped by 1 M phosphoric acid. Then, a microplate reader (MPR-A4i, TOSOH CORPORATION) was used to measure the absorbance at 450 nm. Based on this value, reaction value ([absorbance at 450 nm of a well for which glycoprotein was solid-phased to the plate and
(§4) […] reacted]−[absorbance at 450 nm of a well for which glycoprotein was not solid-phased to the plate and reacted] was calculated. Next, for each lectin, the interaction strength (relative value) to each glycoprotein was calculated based on an assumption that the glycoprotein (thyroglobulin) value was 100%. The calculation result is shown in Table 9 and FIG. 19 to FIG. 23.

Bovine serum albumin = target: T2, Bovine serum albumin (bovine, UniProt P02769 25-607); experiment: as above
T2 construct: Control protein without a sugar chain; also called Bovine blood serum albumin; Blood serum albumin (bovine)
T2 sequence (P02769 25-607 limits assumed): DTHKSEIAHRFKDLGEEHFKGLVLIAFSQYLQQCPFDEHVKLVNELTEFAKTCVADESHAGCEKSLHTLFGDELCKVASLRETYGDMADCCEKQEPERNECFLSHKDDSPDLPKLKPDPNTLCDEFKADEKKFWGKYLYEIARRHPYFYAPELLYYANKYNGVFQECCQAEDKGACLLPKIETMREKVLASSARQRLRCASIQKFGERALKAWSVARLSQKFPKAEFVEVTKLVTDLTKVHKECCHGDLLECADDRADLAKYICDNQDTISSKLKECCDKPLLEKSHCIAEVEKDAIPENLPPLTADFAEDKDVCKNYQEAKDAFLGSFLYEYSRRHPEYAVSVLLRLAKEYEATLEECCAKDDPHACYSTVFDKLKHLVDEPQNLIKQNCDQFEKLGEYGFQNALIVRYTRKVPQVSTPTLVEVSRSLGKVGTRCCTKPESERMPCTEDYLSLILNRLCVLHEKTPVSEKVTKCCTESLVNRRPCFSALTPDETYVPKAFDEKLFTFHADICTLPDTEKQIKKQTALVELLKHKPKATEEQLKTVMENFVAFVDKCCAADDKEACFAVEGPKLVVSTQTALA
Description: as §2, §3, §4

Thyroglobulin (pig) = Thyroglobulin (pig) (pig, UniProt F1RRV3 20-2692, L-fucose α1→6 N-linked glycans); experiment: ELISA, glycoprotein coated, biotin-labeled lectin; thyroglobulin set to 100%; ⊚ = relative values of 120 to 80
Sequence of Thyroglobulin (pig) (F1RRV3 20-2692 limits assumed): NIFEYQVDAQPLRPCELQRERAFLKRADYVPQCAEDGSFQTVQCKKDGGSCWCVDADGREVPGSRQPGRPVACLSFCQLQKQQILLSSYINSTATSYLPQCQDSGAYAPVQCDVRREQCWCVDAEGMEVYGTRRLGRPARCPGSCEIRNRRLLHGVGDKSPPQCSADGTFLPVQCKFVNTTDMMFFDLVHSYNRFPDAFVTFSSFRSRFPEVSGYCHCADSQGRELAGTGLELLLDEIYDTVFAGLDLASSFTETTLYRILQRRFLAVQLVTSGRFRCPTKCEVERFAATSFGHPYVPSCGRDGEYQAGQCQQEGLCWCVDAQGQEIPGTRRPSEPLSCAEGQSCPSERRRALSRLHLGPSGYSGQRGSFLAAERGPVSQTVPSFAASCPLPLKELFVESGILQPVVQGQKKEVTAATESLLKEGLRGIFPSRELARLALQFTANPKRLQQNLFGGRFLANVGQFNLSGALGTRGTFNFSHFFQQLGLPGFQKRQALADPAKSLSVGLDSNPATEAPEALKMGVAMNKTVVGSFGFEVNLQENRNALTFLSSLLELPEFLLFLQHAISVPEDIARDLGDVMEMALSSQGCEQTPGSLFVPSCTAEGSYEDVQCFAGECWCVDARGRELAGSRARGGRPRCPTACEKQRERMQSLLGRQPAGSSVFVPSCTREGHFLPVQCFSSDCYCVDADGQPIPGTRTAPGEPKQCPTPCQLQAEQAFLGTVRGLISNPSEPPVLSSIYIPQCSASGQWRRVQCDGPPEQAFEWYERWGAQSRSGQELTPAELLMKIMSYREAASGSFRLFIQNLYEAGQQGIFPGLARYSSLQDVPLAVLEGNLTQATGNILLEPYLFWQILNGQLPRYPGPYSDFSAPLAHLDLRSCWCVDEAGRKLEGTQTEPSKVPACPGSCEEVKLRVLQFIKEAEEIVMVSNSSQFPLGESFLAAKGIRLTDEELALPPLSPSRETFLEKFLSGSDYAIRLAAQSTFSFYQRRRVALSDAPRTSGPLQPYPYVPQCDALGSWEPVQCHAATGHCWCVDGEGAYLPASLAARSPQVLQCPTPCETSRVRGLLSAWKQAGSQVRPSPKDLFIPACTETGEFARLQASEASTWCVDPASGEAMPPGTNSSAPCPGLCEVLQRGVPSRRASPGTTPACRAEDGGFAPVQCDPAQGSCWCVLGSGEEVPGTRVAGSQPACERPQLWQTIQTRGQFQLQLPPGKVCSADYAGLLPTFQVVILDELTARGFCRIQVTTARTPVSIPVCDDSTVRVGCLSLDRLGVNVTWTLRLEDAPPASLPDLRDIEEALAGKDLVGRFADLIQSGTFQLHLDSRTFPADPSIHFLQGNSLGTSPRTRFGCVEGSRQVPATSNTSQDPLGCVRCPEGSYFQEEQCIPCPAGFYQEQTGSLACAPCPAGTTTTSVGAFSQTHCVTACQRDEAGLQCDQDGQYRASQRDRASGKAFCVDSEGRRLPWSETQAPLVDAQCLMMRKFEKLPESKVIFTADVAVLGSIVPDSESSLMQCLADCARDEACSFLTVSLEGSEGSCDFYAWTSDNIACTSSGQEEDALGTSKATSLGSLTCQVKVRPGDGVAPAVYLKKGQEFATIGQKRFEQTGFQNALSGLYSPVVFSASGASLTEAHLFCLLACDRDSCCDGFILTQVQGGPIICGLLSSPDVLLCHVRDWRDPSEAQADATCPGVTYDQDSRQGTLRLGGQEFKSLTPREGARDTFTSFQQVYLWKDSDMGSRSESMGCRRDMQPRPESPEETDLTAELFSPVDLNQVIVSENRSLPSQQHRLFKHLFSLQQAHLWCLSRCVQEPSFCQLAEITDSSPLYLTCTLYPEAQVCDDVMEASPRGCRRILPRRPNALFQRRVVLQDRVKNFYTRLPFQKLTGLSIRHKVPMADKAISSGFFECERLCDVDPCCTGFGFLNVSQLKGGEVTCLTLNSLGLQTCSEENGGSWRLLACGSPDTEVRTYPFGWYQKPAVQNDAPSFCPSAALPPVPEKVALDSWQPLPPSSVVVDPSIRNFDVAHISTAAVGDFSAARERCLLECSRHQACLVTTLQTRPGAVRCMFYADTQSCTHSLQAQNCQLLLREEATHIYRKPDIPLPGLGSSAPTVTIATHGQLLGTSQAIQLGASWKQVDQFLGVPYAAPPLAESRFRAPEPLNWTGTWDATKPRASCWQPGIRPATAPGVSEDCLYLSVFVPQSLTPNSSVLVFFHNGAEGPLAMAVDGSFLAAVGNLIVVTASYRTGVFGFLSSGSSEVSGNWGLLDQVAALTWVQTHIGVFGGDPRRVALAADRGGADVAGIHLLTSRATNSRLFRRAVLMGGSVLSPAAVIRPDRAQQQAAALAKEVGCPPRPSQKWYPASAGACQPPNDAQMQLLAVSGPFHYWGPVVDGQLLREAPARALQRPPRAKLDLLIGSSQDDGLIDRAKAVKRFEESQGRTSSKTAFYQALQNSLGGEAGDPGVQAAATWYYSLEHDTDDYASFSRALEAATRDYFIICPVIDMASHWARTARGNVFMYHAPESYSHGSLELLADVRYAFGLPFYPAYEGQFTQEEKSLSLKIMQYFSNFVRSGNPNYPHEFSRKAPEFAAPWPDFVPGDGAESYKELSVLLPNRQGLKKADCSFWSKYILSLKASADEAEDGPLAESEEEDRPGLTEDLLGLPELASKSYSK
Description: The glycoprotein and albumin as protein not including a sugar chain as a control were dissolved in 0.1 M carbonic acid buffer solution (pH 9.5) at 1 mg/ml. Then, the resultant solution was added to a microtiter plate (Nunc 439454) and was incubated at 4 degrees C. overnight. Then, the resultant solution was cleaned by 0.05% Tween/PBS three times. Thereafter, 1% BSA/PBS was added to wells and the solution was incubated at 37 degrees C. for one hour. Then, after the solution was cleaned by 0.05% Tween/PBS three times, biotin labeled-lectin appropriately diluted by 1% BSA/0.05% Tween/PBS was added to the wells and the solution was incubated at 37 degrees C. for one hour. […]
as §3
In contrast with this, in the case of PTL of Example 1 and SRL of Example 2, only glycoprotein having sL-fucose α1→6 sugar chain is detected and a non-L-fucose α1→6 reacted]−[absorbance at 450 nm of a well for which glycoprotein was not solid-phased to the plate and reacted] was calculated. […]

Sequence of α-fetoprotein-L3 (prepared from the culture supernatant of human liver cancer cells) (human) (P02771 19-609 limits assumed): as the sequence (P02771 19-609 limits assumed) above

Molecule: Aleuria aurantia lectin (AAL) of Comparison Example 1 (from UniProt P18891 2-313)
- reaction value (absorbance at 450 nm, blank subtracted) (absorbance at 450 nm) [1]: 0.795

Molecule: Asialofetuin
- minimum inhibition concentration [2]: 250 µl/ml

Molecule: Asialomucin (pig)
- minimum inhibition concentration [3]: 31.3 µl/ml
- minimum inhibition concentration [4]: 62.5 µl/ml

Molecule: Aspergillus oryzae lectin (AOL) of Comparison Example 2
- reaction value (absorbance at 450 nm, blank subtracted) (absorbance at 450 nm) [5]: 0.011
- reaction value (absorbance at 450 nm, blank subtracted) (absorbance at 450 nm) [1]: 0.898

Molecule: Lens culinaris agglutinin (LCA) of Comparison Example 3 (from UniProt P02870 31-210; P02870 218-269)
- reaction value (absorbance at 450 nm, blank subtracted) (absorbance at 450 nm) [5]: 0.01
- reaction value (absorbance at 450 nm, blank subtracted) (absorbance at 450 nm) [1]: 0.455

Molecule: Mucin (pig)
- minimum inhibition concentration [3]: 15.6 µl/ml
- minimum inhibition concentration [4]: 62.5 µl/ml

Molecule: Pholiota terrestris lectin (PTL) of Example 1
- reaction value (absorbance at 450 nm, blank subtracted) (absorbance at 450 nm) [1]: 1.55

Molecule: Stropharia rugosoannulata lectin (SRL) of Example 2
- reaction value (absorbance at 450 nm, blank subtracted) (absorbance at 450 nm) [5]: 0.031
- reaction value (absorbance at 450 nm, blank subtracted) (absorbance at 450 nm) [1]: 1.62

Molecule: Thyroglobulin (Table 3 and affinity column, species not stated)
- minimum inhibition concentration [3]: 125 µl/ml
- minimum inhibition concentration [2]: 62.5 µl/ml
- minimum inhibition concentration [6]: 250 µl/ml
- minimum inhibition concentration [7]: 62.5 µl/ml
- minimum inhibition concentration [8]: 250 µl/ml

B1: Aleuria aurantia lectin (AAL) of Comparison Example 1 (other, UniProt P18891 2-313, looked up)
chain: PTEFLYTSKIAAISWAATGGRQQRVYFQDLNGKIREAQRGGDNPWTGGSSQNVIGEAKLFSPLAAVTWKSAQGIQIRVYCVNKDNILSEFVYDGSKWITGQLGSVGVKVGSNSKLAALQWGGSESAPPNIRVYYQKSNGSGSSIHEYVWSGKWTAGASFGSTVPGTGIGATAIGPGRLRIYYQATDNKIREHCWDSNSWYVGGFSASASAGVSIAAISWGSTPNIRVYWQKGREELYEAAYGGSWNTPGQIKDASRPTPSLPDTFIAANSSGNIDISVFFQASGVSLQQWQWISGKGWSIGAVVPTGTPAGW
modifications: biotin-labeled in the Western blotting and ELISA experiments
notes: Bought lectin
- binding result (Transferrin (human)): no binding (tested: biotin-labeled lectin 2 µg/ml)
- binding result (Lactoferrin (bovine)): binds
- binding result (Invertase (yeast)): no binding (tested: relative value 10 or less)
- binding result (Bovine serum albumin): no binding (tested: relative value 10 or less)
- binding result (Thyroglobulin (pig)): binds

B2: Lens culinaris agglutinin (LCA) of Comparison Example 3 (other)
chain 1: TETTSFSITKFSPDQKNLIFQGDGYTTKGKLTLTKAVKSTVGRALYSTPIHIWDRDTGNVANFVTSFTFVIDAPSSYNVADEFTFFIAPVDTKPQTGGGYLGVFNSKEYDKTSQTVAVEFDTFYNAAWDPSNKERHIGIDVNSIKSVNTKSWNLQNGERANVVIAFNAATNVLTVTLTYP
chain 2: VTSYTLNEVVPLKDVVPEWVRIGFSATTGAEFAAHEVHSWSFHSELGGTSSS
modifications: biotin-labeled in the Western blotting and ELISA experiments
notes: Bought lectin
- binding result (Transferrin (human)): no binding (tested: biotin-labeled lectin 2 µg/ml)
- binding result (Bovine serum albumin): no binding (tested: relative value 10 or less)
